Test results reported in patent US5821104.

Molecular target: Phe-Pro-Ala-pNA

Aspergillus niger tripeptidyl aminopeptidase (TPAP) (enzyme)
specific activity (release of pNA in the TPAP assay): 27 µmol/min/mg
